Four molecules from patent US8455447B2, “Modified therapeutic agents” (priority 2002, dated 2013) can be followed below.

Like-named read-outs stand apart in the source and are kept apart here. Ends that are not written are not given here.

Holding throughout (format): cell-based
For test [1], the system named is sheep erythrocytes. In words: Anti-haemolytic assay: classical pathway mediated haemolysis of sheep erythrocytes, absence of albumin. To be noted: No BSA; non-stick plates; Example 3; read-out: IH50 (the source's name). Here is the method: The Anti-complement activity of the modified SCR1-3 agents was measured by classical pathway mediated haemolysis of sheep erythrocytes.
Step 1—The Dilution Plate
7 wells of each of 9 lanes, missing the uppermost well, on a flat-bottomed microtitre plate were filled with 200 μL of diluent (0.100 M Hepes, 0.150 M NaCl, 0.100% gelatin, adding NaOH to pH 7.4).
Into the uppermost wells, the required volume of each test/control sample was aliquotted, immediately followed by enough diluent to make the total volume up to 300 μL, to ensure a final concentration of 1.2 μM.
Using a multichannel Gilson pipette, all 9 top wells were mixed and 100 μL were transferred from these wells to the corresponding wells in 2nd row. […]
After incubation the plates were centrifuged at 1600 rpm for 3 min and the Nescofilm removed. 150 μL of supernatant from each well of the two plates was then transferred into the corresponding wells of two new microtitre plates and the absorbance of each well measured at 405 nm using a plate reader.
% inhibition was calculated using the following formula:
[formula] wherein: • Ao=the mean value of the absorbances in lane 1 • Amax=the mean value of the absorbances in lane 2 • t=the mean of the two absorbance values for each sample at any given concentration. […]

Test [2] deals with sheep erythrocytes. The test can be described thus: Anti-haemolytic assay: classical pathway mediated haemolysis of sheep erythrocytes, presence of bovine serum albumin. To be noted: 40 mg/ml BSA (fatty acid free); non-stick plates; Example 3; read-out: IH50 (the source's name). Here is the method: Anti-Complement Activity of Acylated Peptide/APT154 Conjugates in the Presence of Bovine Serum Albumin (BSA)
7 wells of each of 4 lanes, missing the uppermost well, on a flat-bottomed microtitre plate were filled with 200 μL of the BSA/diluent solution. Into the uppermost wells, the required volume each test/control sample (APT3328, APT33330, APT33331 and APT070) was aliquotted, immediately followed by enough BSA/diluent solution to make the total volume up to 300 μL, to ensure a final concentration of 1.2 μM.
These 1.2 μM wells were then diluted across a 3 log dilution gradient and the rest of the assay performed as for the peptide/APT154 conjugates. The BSA diluent solution was used instead of pure diluent except for the Ao lane of the reaction plate, for which pure diluent (50 μL) and the BSA/diluent solution (50 μL) were aliquotted. The whole assay was repeated.
[…] In the Ao lane of the reaction plate, for which pure diluent (50 μL) and the BSA/diluent solution (50 μL) were aliquotted.
Multiple anti-haemolytic assays were performed on the reaction mixture of more than one batch of APT3147, in the presence and absence of fatty acid free bovine serum albumin (BSA) at both 4 mg/ml and 40 mg/ml, on non-stick plates.

Test [3] concerns MAC formation on guinea pig erythrocytes. In words: Reactive lysis system: inhibition of MAC formation on guinea pig erythrocytes. As to conditions: for IC50: read-out: IH50 (concentration of protein required to achieve 50% inhibition of lysis). Here is the method: The ability of APT2439, APT3073 and APT3280 to inhibit MAC formation on guinea pig erythrocytes, was tested in a reactive lysis system. The effect of human albumin (HSA) on this activity was also investigated. Test samples were prepared at a range of concentrations in the presence or absence of 8 mg/ml fatty acid free HSA (Sigma, UK). 50 μL of these dilutions was added to 50 μL of a 5% suspension of guinea pig erythrocytes in PBS/0.1% gelatin, and incubated for 30 minutes at 37° C. 10 μL of human C5b6 complex (C5b6 was partially purified from acute phase serum) in PBS containing 15 mM EDTA and 0.1% gelatin, was added to the guinea pig erythrocyte suspension. 40 μL of normal human serum, diluted in PBS containing 15 mM EDTA and 0.1% gelatin was added as a source of C7, C8 and C9, and the suspension was incubated for 1 hour at 37 degrees Celsius. (The concentrations of C5b6 and normal human serum required to achieve about 80% lysis of guinea pig erythrocytes was pre-determined by titration.) The reaction mixtures were centrifuged for 5 minutes at 1000×g and the degree of haemolysis was determined by measuring the absorbance of the supernatant at 410 nm. To determine background lysis, a control reaction was prepared without serum. To determine maximal lysis, a control reaction containing no inhibitor (or test sample) was prepared. The percentage inhibition of haemolysis was determined for each protein at each concentration. An IH50 value (the concentration of protein required to achieve 50% inhibition of lysis) was determined for each protein in the presence and absence of HSA.

On to “APT3147: bismyr-GSSKSPSKKKKKKPGDC conjugated to SCR1-3; SEQ ID NO: 26; two myristoyl groups (not fully specified (N-terminus); printed as bismyr-GSSKSPSKKKKKKPGDC; also: two myristoyl groups (bismyr-), places not given here, conjugated to SCR1-3) [bismyr-… conjugated to SCR1-3; two myristoyl groups]”, for which the IC50 in test [1] and in test [2] was 2.2 nM each time.

B1: APT2439: Recombinant human CD59 (lacking the GPI anchor), with an amino-terminal methionine and a carboxy-terminal cysteine, expressed in E. coli (protein)
chain: MLQCYNCPNPTADCKTAVNCSSDFDACLITKAGLQVYNKCWKFEHCNFNDVTTRLRENELTYYCCKKDLCNFNEQLENC
For B1, the IC50 in test [3] (Presence of HSA (2.7 mg/ml)) is 400 nM; in test [3] (absence of HSA) it was 600 nM. Besides, the “concentrations required to achieve complete inhibition of haemolysis” value in test [3] (absence of HSA) is “mM concentrations”. Also, the “decrease in potency in the presence of HSA” value in test [3] (presence of HSA) was “did not demonstrate any decrease in potency”.

B2: APT3280: disulphide conjugate of APT2439 and APT3146 (thiopyridylated bisMyr-KSSKSPSKKDDKKPGDC) (conjugate)
chain: B1 chain
peptide: KSSKSPSKKDDKKPGDC
As for B2, the IC50 came out at 0.08 nM in test [3] (Presence of HSA (2.7 mg/ml)) and 0.1 nM in test [3] (absence of HSA). In addition, in test [3] (absence of HSA), the “increase in potency compared to APT2439” value is listed as around 4 log. The “decrease in potency in the presence of HSA” value in test [3] (presence of HSA) is given as “did not demonstrate any decrease in potency”.

B3: APT3073: disulphide conjugate of APT2439 and APT2258 (Myr-GSSKSPSKKDDKKPGDC (2-SPy)-NH2) (conjugate)
chain: B1 chain
peptide: GSSKSPSKKDDKKPGDC
For the molecule B3, the IC50 in test [3] (Presence of HSA (2.7 mg/ml)) came to 6 nM. For the same molecule, in test [3] (absence of HSA), the “increase in potency compared to APT2439” value is listed as around 3 log and the IC50 worked out at 0.8 nM. Besides, the “decrease in potency compared to its potency in the absence of HSA” value in test [3] (presence of HSA, final concentration 2.7 mg/ml) is 1 log.
